Source: US20210395392A1 (Bristol-Myers Squibb, published 2021)
Substitutions are numbered along the chain they refer to. Blank lines part the entries; values can stand above or below the binder they belong to.

Experiments:
[1] = target: T1, Recombinant soluble extracellular domain of cynomolgus monkey MerTK (cynomolgus monkey, UniProt Q12866 21-505 (human entry)); assay: SPR, mAb captured, soluble MerTK ECD as analyte, 37 C
T1 construct: SPR analyte; also called cMerTK; Cynomolgus MerTK
T1 chain: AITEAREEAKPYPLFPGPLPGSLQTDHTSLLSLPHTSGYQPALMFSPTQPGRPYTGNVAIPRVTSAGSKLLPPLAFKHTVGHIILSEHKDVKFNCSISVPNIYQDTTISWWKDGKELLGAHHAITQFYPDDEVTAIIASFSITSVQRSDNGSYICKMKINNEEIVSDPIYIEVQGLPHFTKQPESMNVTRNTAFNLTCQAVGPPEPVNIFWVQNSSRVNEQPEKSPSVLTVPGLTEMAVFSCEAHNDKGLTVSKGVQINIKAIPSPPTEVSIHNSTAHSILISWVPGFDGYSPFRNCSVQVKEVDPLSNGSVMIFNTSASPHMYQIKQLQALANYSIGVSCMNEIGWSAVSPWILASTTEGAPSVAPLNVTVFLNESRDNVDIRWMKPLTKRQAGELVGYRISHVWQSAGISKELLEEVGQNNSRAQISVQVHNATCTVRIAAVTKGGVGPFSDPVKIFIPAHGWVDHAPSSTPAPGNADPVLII
Description: (§1) MerTK Abs were captured on the chip. Recombinant soluble forms of the extracellular domains of human, cynomolgus monkey, and mouse MerTK polypeptide were injected as analytes at multiple concentrations each. The resulting sensorgrams were double-referenced and fitted to a 1:1 Langmuir binding model with mass transport.

[2] = target: T2, Recombinant soluble extracellular domain of human MerTK (human, UniProt Q12866 21-505); assay: as above
T2 construct: SPR analyte; also called hMerTK
T2 sequence: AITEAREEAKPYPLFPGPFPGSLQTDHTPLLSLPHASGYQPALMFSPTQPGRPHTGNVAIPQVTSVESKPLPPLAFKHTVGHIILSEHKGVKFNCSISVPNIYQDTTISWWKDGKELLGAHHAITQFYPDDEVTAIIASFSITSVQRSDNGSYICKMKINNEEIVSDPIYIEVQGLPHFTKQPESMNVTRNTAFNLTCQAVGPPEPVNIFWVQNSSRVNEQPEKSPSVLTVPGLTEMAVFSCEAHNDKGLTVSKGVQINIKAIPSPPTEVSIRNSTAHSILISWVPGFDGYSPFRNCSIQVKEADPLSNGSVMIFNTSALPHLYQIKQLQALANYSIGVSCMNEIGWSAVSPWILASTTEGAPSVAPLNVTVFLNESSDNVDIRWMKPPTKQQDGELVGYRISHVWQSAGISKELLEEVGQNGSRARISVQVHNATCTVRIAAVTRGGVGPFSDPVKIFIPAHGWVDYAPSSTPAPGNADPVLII
Description: as §1

[3] = target: T3, Mouse MerTK on mMerTK-expressing cells (mouse, UniProt Q60805 19-994); assay: cell-based or functional assay
T3 sequence: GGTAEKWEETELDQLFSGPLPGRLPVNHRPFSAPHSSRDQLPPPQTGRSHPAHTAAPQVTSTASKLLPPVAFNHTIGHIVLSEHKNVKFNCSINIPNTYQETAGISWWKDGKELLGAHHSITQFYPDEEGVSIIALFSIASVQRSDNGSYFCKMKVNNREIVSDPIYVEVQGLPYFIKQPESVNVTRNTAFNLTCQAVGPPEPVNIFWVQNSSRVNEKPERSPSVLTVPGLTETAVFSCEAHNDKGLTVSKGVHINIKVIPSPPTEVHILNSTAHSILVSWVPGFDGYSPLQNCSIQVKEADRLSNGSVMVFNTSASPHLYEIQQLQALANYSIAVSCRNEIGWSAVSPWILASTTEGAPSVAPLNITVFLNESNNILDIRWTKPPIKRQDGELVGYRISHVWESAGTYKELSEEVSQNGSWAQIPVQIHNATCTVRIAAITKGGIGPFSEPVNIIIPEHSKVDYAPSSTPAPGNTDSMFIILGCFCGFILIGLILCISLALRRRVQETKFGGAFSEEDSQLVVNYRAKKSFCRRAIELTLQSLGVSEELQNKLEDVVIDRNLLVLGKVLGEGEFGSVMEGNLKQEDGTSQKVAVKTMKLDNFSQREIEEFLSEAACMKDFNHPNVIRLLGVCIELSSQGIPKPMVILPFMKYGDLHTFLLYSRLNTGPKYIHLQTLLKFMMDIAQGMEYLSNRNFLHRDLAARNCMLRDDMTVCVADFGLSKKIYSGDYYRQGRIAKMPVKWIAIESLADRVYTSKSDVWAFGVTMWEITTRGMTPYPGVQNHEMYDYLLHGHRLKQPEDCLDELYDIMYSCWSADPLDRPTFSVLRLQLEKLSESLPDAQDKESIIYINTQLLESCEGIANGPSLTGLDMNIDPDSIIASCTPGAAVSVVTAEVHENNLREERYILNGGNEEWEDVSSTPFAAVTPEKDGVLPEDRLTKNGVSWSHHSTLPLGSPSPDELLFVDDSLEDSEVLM

Kd [1]: 31.3 nM
koff [1]: 0.00379 s⁻¹
kon [1]: 121000 M⁻¹ s⁻¹
t1/2 [1]: 3 min
Kd [2]: 27.8 nM
koff [2]: 0.00336 s⁻¹
kon [2]: 121000 M⁻¹ s⁻¹
t1/2 [2]: 3.4 min
B1: HuMAb 4K10 (antibody, human IgG1, kappa, V domains shown)
VH: QVQLQQWGAGLLKPSETLSLTCAVYGGSFSGYYWSWLRQPPGKGLEWIGEISHSGSTNYNPSLKSRVTISVDTSKNQFSLKLSSVTAADTAVYYCARALSRYWYFDLWGRGTLVTVSS
VL: EIVLTQSPATLSLSPGERATLSCRASQSASNYLAWYQQKPGQAPRLLIYDASNRATGIPARFSGSGSGTDFTLTISSLEPEDFAVYYCYQRSQWPISFGQGTRLEIKR
notes: Human anti-hMerTK mAb, Bin 3

Kd [1]: 14 nM
koff [1]: 0.0014 s⁻¹
kon [1]: 100000 M⁻¹ s⁻¹
t1/2 [1]: 8.3 min
Kd [2]: 5.7 nM
koff [2]: 0.00168 s⁻¹
kon [2]: 299000 M⁻¹ s⁻¹
t1/2 [2]: 6.9 min
B2: HuMAb 8N42 (antibody, V domains shown)
VH: QVQLQQWGAGLLKPSETLSLTCAVYGGSFSIYYWSWIRQPPGKGLELIGEINDEGNTNYNPSLKSRVTISVDTSKNQFSLKLSSVTAADTAVYYCARGGTGDIHAFDIWGQGTMVTVSS
VL: DIQMTQSPSSLSASVGDRVTITCRASQGISKWLAWYQQKPEKAPKSLIYAASSLQSGVPSRFSGSGSGTDFTLTISSLQPEDFATYYCQQYNSYPWTFGQGTKVEIKR
notes: Human anti-hMerTK mAb, Bin 1

Kd [1]: 2.5 nM
koff [1]: 0.00099 s⁻¹
kon [1]: 400000 M⁻¹ s⁻¹
t1/2 [1]: 11.7 min
Kd [2]: 2.3 nM
koff [2]: 0.000975 s⁻¹
kon [2]: 421000 M⁻¹ s⁻¹
t1/2 [2]: 11.9 min
B3: HuMAb 25J60 (antibody, human IgG1, kappa, V domains shown)
VH: QVQLVQSGAEVKKPGASVKVSCKTSGNTQIRYYMYWVRQAPGQGLEWMGILNPNQDQTTYAQKFQGRVTMTRDTSTSTVYMELSSLRSEDTAVYYCATTYRYYMDVWGQGTTVTVSS
VL: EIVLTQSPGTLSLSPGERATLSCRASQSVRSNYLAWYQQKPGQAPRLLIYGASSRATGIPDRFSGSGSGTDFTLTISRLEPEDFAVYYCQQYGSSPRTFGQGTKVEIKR
notes: Human anti-hMerTK mAb, Bin 2, derived from HuMAb 25B10 by optimization

Kd [1]: 4.5 nM
koff [1]: 0.00124 s⁻¹
kon [1]: 274000 M⁻¹ s⁻¹
t1/2 [1]: 4.5 min
Kd [2]: 4.1 nM
koff [2]: 0.00123 s⁻¹
kon [2]: 297000 M⁻¹ s⁻¹
t1/2 [2]: 9.6 min
B4: HuMAb 25J80 (antibody, human IgG1, kappa, V domains shown)
VH: B3 VH with N27R, Q29F, Y35H, L51I, N52W, Q55G, R101K, Y103A
VL: EIVLTQSPGTLSLSPGERATLSCRASQSVRSNYLAWYQQKPGQAPRLLIYGASSRATGIPDRFSGSGSGTDFTLTISRLEPEDFAVYYCQQYESPPRTFGQGTKVEIKR
notes: as for B3

Kd [1]: 54.9 nM
koff [1]: 0.00796 s⁻¹
kon [1]: 145000 M⁻¹ s⁻¹
t1/2 [1]: 1.5 min
Kd [2]: 34.4 nM
koff [2]: 0.00844 s⁻¹
kon [2]: 250000 M⁻¹ s⁻¹
t1/2 [2]: 1.4 min
Signaling Assay, mMerTK with Gas6, pSTAT1 IC50 (nM) [3]: > 100 nM
B5: HuMAb 1B4 (antibody, human IgG1, kappa, V domains shown)
VH: QLQLQESGPGLVKPSETLSLTCAVSGYSISSGNYWGWIRQSPGKGLEWIGSVDHSGSTYYSPSLKSRVTISVDTSKNQFSLKLNSVTAADTADYYCARNTMIRGVMDWFDPWGQGTLVTVSS
VL: AIQLTQSPSSLSASVGDRVTITCRASQGISSALAWYQQKPGKAPKVLIYDASSLESGVPSRFSGSGSGTDFTLTISSLQPEDFATYYCQQFRSYPTFGQGTKVEIKR
notes: Human anti-hMerTK mAb, Bin 1

Kd [1]: 24.7 nM
koff [1]: 0.00126 s⁻¹
kon [1]: 50900 M⁻¹ s⁻¹
t1/2 [1]: 10.2 min
Kd [2]: 10.6 nM
koff [2]: 0.000775 s⁻¹
kon [2]: 73500 M⁻¹ s⁻¹
t1/2 [2]: 14.9 min
B6: HuMAb 22I16 (antibody, human IgG1, kappa, V domains shown)
VH: EVQLVESGGGLVQPGGSLRLSCAASGFTFSSYSMNWVRQAPGKGLEWVSYIISGSDTIFYADSVKGRFTISRDNAKNSLYLQMNSLRDEDTAVYYCARDETVVRGVINYFDYWGQGTLVTVSS
VL: B5 VL with A25S, V46L, R92I, K102R, V103L
notes: Human anti-hMerTK mAb, Bin 1; also called 22116
